Data from the nanobody polyreactivity screen of Harvey et al. (2022).

Assay: yeast display, Sf9 membrane polyspecificity reagent, FACS + sequencing; frameworks hold sequencing errors
How it was run: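 Nanobodies came from a synthetic yeast display library in Saccharomyces cerevisiae BJ5465, induced with galactose for 36–48 hours and stained for 1 hour at 4 °C with 10% biotinylated, detergent-solubilized Sf9 membrane reagent. Cells were enriched on streptavidin microbeads and then FACS-sorted, with low and high (top ~1%) gates set on anti-HA fluorescence for expression and streptavidin fluorescence for reagent binding. Each polyreactivity label reflects the gate a clone came from. Genes were amplified by colony PCR, sequenced by MiSeq 2 × 250 and filtered by CDR length.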

| Sequence | polyreactivity (PSR sort gate) |
| --- | --- |
| QVQLVESVGGLVQAGGSLRLSCAASGFTFANYAMGWYRQAPGKERELVAAITWSGGRTYYADSVKGRFTISRDNAKNTVYLQMNSLKQEYTAVYYCAAGLGTLYGYWGQGTQVTVSS | high polyreactivity |
| QVQLVESGGGLVQAGGSLRLSCAASGLTFYRYAMGWYRQAPWKERDFVAAINRNGGSTYYADSVKGRFTISRDNAKNTVYLEMNSLKPEDTAVYYCNARVSGTRSGRVLRDYWGQGTQVTVSS | high polyreactivity |
| QVQLVESGGGLVQAGGSLRLSCAASGFTFAYYAMGWYRQAPGKERELVAAITGSGGRTYYADSVKGRFTISRDNAKNTVYLQMNSLKPEDTAVYYCAADRTVYYLSRTGYDYWGQGTQVTVSS | high polyreactivity |
| QVQLVESGGGLVQAGGSLRLSCAASGRIFVHYAMGWYRQAPGKERELVAAISWNGGRTFYADSVKGRFTISRDNEKYTVYLQMNSLKPEDTAVYYCAALSRYSLDYWGQGTQVTVSS | high polyreactivity |
| QVQLVESGGVLVQAGGSLLLSCAASGFTFGCYGMGWYRQARGKERELGAAITKSGGRTYYADSVKGRFTISRDNAKNTVYLQMNSLLREDTAVYYCAASSQGDGGYWGQGSQVTVSS | high polyreactivity |
| QDQLVQSGGGLVQAGGSLRLSCAASGFTFYYYAMGWYRQAPGKETELVAGISKSGGITYYADSVKGRFTISRDNAKNTVYLQMNSLKPEDTAVYYCAAAAWYQFFLYRYTYEYWGQGTQVTVSS | low polyreactivity |
| QDQLVESVGGLDQAGGSLRLSCAASGFIFGANAIGWYRQATGKEREMVAAISSSGGRYELRRSVKGRFTISRDNAKNTVYLQMNSLKPEDTAVYYCATPYPTGRPRHYSWGQGTQVTVSS | high polyreactivity |
| QVQLVESGGGLVQAGGSLRLSCAASGRIFYYYAMGWYRQAPGKERELVATITTTGNTYYADSVKGRFTISRDNAKNTVYLQMNSLKPEDTAVYYCNAGWDLVYGYYPRRKNFDYWGQRTQVTVSS | high polyreactivity |
| QVQLVESGGGLDQAGGSLRLSCAASGITFTFNAMGWYRQAPGKERELVAAISSTTSTKYADSVKGRFTISRDNAKYTVYLQMNSLKPEDTAVYYCAAVEFELRGDYWGQGTQVTVSS | low polyreactivity |
| QVQLVESGGGLVQAGGSLRLSCAASGLTIFVYAMGWYRQAPGKERELVAAISDSGGSTYYADSVKGRFTISRDNAKNTVYLQMNSLKPEDSAVYYCAGNSSTYPSDDSYDYWGQGTQVTVSS | low polyreactivity |
| QVQLVESGGGVVQAGGSLRLSCAGSGRTFPYYAVGWYRQAPGKERELVAVISSADSTNYADSVKGRFTISRDNAKNTVYLQMNSLKPEDTAVYYCADDAVYYGDDYWGQGTQVTVSS | low polyreactivity |
| QVQLVESGGGLVQAGGSLRLSCAASGSTFQNYAMGWYRQAPGKERELVAAINWSGGSTYYADSVKVRFTISRDNAKNTVYLQMNSLKPEDTAVYYCATDDPLAYGSFGPYQPYDYWGQGTQVTVSS | low polyreactivity |
| QVHLVESGGGLVQAGGSLRLSCAASGFTFDAYAMGWYRQAPGKERELVAAITRRSGSTYYADSVKGRFTISRDNAKNTVYLQMNSLKPEDTAVYYCAAVSVHRLGSTFGYWGQGTQVTVSS | high polyreactivity |
| QVQLVESGGGLVQAGGSLRLSCAASGRIFAGYAMGWYRQAPGKERELVAAISNARRTNYADSVKGRFTISRDNAKNNVYLHMNSLKPEDTAVYYCAASRYGRKFSLYDYYYWGQGTQVTVSS | high polyreactivity |
| QVQLVESGGGLVQAGGSLRLSCAASGFIFRFNAMGWYIQAPGKSRELVAAISWSGSSTYYADSVKGRFTISRDNAKNTVYLQMTSLKPEDTAVYYCATSSLYYTIVKGDFYYWGQGTQVTVSS | high polyreactivity |
| QVHLVESGGGLVQAGGSLRLSCAASGSTFWGYTMGWYRQAPGKERELVAAISTIGGSTYYADSVKGRFTISRDNAKNTVYLQMNSLKTEDTAVYYCAAYKGKHYKEGYWGQGTQVTVSS | low polyreactivity |

| Sequence | polyreactivity (PSR sort gate) |
| --- | --- |
| QGQLVESGGGLVQAGGSLRLSCAASGFTFGHYAMGWYRQAPGKERELVAAIRWSGGSTYYADSVKGRFTISRDNAKNTVYLQMNSLKPEDTAVYYCAARGFDGYEYDYWGQGTQVTVSS | low polyreactivity |
| QVQLVESGGGLVQAGGSLRLSCAASGRTFATNARGWYRQAPGKERELVAGINGSGSTNYADSVKGRFTISRDNAKNTVYLQMNSLKPEDTAVYYCAAYVGLYYRLHYYYWGQGTQVTVSS | low polyreactivity |
| QVQLVESGGGLVQAGGSLRLSCAASGRIFSRYTMGWYRQAPGKERELVAAISSRGGSTYYADSVKGRFTISRDNAKNTVYLQMNSLKREDTAVYYCNTPSYSGSSPYDHWGQGTQVTVSS | high polyreactivity |
| QVQLVESGGGLVQAGGSLRLSCAASGRIFGPYTMGWYRQAPGKERELVAAISWSGGSTYYADSVKGRFTISRDNAKNTVYLQMNSLKPEDTAVYYCNADHPFPQYEGGSWGQGTQVTVSS | low polyreactivity |
| QVQLVESGGGLVQAGGSLRLSCAASGSTFPYNAMGWYRQAPGKERELVAAITSSGRTNYADSVKGRFTISRDNAKNTDYLQMNSLKPEDTAVYYCAAVRWYAHRVDYWGQGTQVTVSS | low polyreactivity |
| QVQLQESGGGLVQAGGSLRLGCAASGNISDPGYMGWYRQAPGKEREFVAAIAAGSNTNYADSVKGRFTISRDNAKNTVYLLMNSLKPEDTAVFYCAVDSYARVQYEYWGQGTQVTVYS | low polyreactivity |
| QVQLVESGGGLVQAGGSLRLSCAASGRIFVSYTMGWYRQAPGKERELVAAISTDATTNYADSVKGRFTISRDNAKNTVYLQMNSLKPEDTAVYYCAADPFEYSYYTLYTSNPFYYWGQGTQVTVSS | low polyreactivity |
| QVQLVESGGGLVQARGSLRLSCAASGSIFNRNAMGWYRQAPGKERELVAAISRRGGSTYYADSVKGRFTISRDNEKNSVYLQMNSLKPEDTAVYYCAAATRKTEYDYWGQGTEVTVSS | low polyreactivity |
| QVQLVESGGGLVQAGGSLRLSCAASGSTFLRYAMGWYRQAPGKERELVAAISVSGGSTYYADSVKGRFTISRDNAKNTVYLQMNSLKPEDTAVYYCNAVTKFHRRYNYWGQGTQVTVSS | high polyreactivity |
| QVQLVESGGGLVQAGGSLRLSCAASGSIFLWNAMGWYRQAPGKERELVAAITWRGGSTYYADSVKGRFTISRDNAKNTVYLQMNSLKPEDTAVYYCAADSYDWMDYWGQGTQVTVSS | low polyreactivity |
| QVQLVESGGGLVQAGGSLRLICAASGSTFRHYAMGWYRQAPGKERELVAAIRRSGGTTYYADSVKGRFTISRDNAKNTVYLHMNSLKPEDTAVYYCAARLTVRKLVRFDYWGQGTQVTVSS | low polyreactivity |
| QVQLVESGGGLVQAGGSLRLICAASGFTFRTYAMGWYRQAPGKERELVAAINYSGGSTYYADSVKGRFTISRDNAKNTVYLQMNSVKPEDTAVYYCNKQRDVQVYVRYPMNYWGQGTQVTVSS | low polyreactivity |
| QVQLVESGGGLVQAGGSLRLSCAASGITFYSNAMGWYRQAPGKERELVATITRGGSTYYADSVKGRFTISRDNAKNTVYLQMNSLKPEDTAVYYCAADYSYRGREYGYWGQGTQVTVSS | low polyreactivity |
| QVQLVESGGGLVQAGGSLRLSCAASGRTFPSNVMGWYRQAPGKEREFVAAITTRGGNTRYADSVKGRFTISRDNAKNTVYLQMNSLKPEDTAVYYCAAKVKPGYDYWGQGTQVTVSS | low polyreactivity |
| RVQLQESGGGLVQAGGSLRLSCAASGTIFIRGDMGWYRQAPGKEREFVATIETGSNTYYADSEKGRFTISRDNAKNAVYLEMNCLKPGDTAVYYCVVDYQLSGRLRYWGQGTQVTLSS | low polyreactivity |
| QVQLVESGGGLVQAGGSLRLSCAASGFTFRWYTMGWYRQAPGKERELGAAINRGGSTYYADSVKGRFTISRDNAQNTVYLQMNSLKPEDTAVYYCAKSVSASWGRDYWGQGTQVTVSS | high polyreactivity |
